Laboratory results reported in US7122342 (ZymoGenetics, dated 2006).
Positions count from the first letter of the chain named.

T1: PAR4 mutant R68A, expressed on COS cells
T1 sequence: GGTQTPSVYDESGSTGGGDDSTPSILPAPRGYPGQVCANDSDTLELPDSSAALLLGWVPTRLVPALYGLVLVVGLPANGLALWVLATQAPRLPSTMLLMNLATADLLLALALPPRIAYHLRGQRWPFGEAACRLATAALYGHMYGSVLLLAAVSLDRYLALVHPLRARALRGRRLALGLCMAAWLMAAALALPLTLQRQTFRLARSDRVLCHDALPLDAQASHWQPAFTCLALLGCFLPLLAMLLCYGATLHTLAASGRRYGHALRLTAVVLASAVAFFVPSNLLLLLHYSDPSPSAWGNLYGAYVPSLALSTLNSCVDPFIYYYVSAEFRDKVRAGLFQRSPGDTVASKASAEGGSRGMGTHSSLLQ

T2: protease-activated receptor 4 (PAR4), wild type, expressed on transiently transfected COS-7 cells
T2 sequence: T1 sequence with A51R

T3: protease-activated receptor 4 (PAR4), wild type, expressed on transiently transfected COS-7 cells (human, UniProt Q96RI0 18-385)
T3 sequence: T1 sequence with A51R

B1: PAR4 activating peptide, hexapeptide GYPGQV (peptide)
peptide: GYPGQV

test system: T1, PAR4 mutant R68A, expressed on COS cells; test: not given

Q: With thrombin (alpha-thrombin) as the molecule, how does the “phosphatidylinositol 4,5 diphosphate hydrolysis assay” value read?
A: (R68A) had no effect on PAR4 activation by thrombin or trypsin

Q: How did the “phosphatidylinositol 4,5 diphosphate hydrolysis assay” value turn out when trypsin was run?
A: (R68A) had no effect on PAR4 activation by thrombin or trypsin

test system: T2, protease-activated receptor 4 (PAR4), wild type, expressed on transiently transfected COS-7 cells; test: not given

Q: With chymotrypsin as the molecule, how does the “phosphoinositide hydrolysis (activation of PAR4)” value read?
A: Chymotrypsin and elastase failed to activate PAR4

Q: For elastase, which “phosphoinositide hydrolysis (activation of PAR4)” value is on record?
A: Chymotrypsin and elastase failed to activate PAR4

Q: factor IXa was tested. Which “phosphoinositide hydrolysis (activation of PAR4)” value did it give?
A: had little or no activity against PAR4

Q: factor VIIa was tested. Which “phosphoinositide hydrolysis (activation of PAR4)” value did it give?
A: had little or no activity against PAR4

Q: How did the “phosphoinositide hydrolysis (activation of PAR4)” value turn out when factor XIa was run?
A: had little or no activity against PAR4

Q: How did the “phosphoinositide hydrolysis (activation of PAR4)” value turn out when factor Xa was run?
A: Small effects, however, were observed with factor Xa at high concentrations (100 nM)

Q: How did the “phosphoinositide hydrolysis (activation of PAR4)” value turn out when plasmin was run?
A: had little or no activity against PAR4

Q: urokinase was tested. Which “phosphoinositide hydrolysis (activation of PAR4)” value did it give?
A: had little or no activity against PAR4

target: T3, protease-activated receptor 4 (PAR4), …; test: cell-based or functional assay

Q: B1 was tested. Which “EC50 of activation of PAR4 on COS cells” value did it give?
A: ~100000 nM

target: protease-activated receptor 4 (PAR4), wild type, expressed on transiently transfected COS-7 cells (human) (UniProt Q96RI0); test: cell-based or functional assay

Q: With thrombin (alpha-thrombin) (enzyme) as the molecule, how does the phosphoinositide hydrolysis, half-maximal concentration (EC50) read?
A: 5 nM

Q: trypsin (enzyme) was tested. Which phosphoinositide hydrolysis, half-maximal concentration (EC50) did it give?
A: 5 nM
